From patent US20220073643A1
Substitutions are numbered along the chain they refer to. Blank lines part the entries; values can stand above or below the binder they belong to.

Target: Claudin18.2-His protein (human)
Assay: indirect ELISA on coated Claudin18.2-His

- EC50: 0.0197 µg/mL
B1: 259B4D4 (antibody, V domains shown)
VH: EIQLQQSGPELMKPGASVRISCKASGYSFTSYYMHWMKQSHVKSLEWIGYIDPFNGNTRYNQKFKDKATLTVDKSSTTAYMHLSSLTSEDSAVYFCASLRFFAYWGQGTLVTVSA
VL: DIVMTQSPSSLTVTAGEKVTMSCNSSQSLLNSGNQKNYLTWYQQKPGQPPKLLIYWASSRESGVPDRFTGSGSGTDFTLTISTVQAEDLAVYYCQNDYSFPLTFGAGTRLELK

- EC50: 0.0113 µg/mL
B2: 267B2C5 (antibody, V domains shown)
VH: QVQLKESGPGLVAPSQSLAITCTVSGFSLTTYGVSWVRQPPGKGLEWLGVIWGDGSTHYHSALISRLSIRKDNSKSQVFLKVNSLQTDDTATYYCGKPGRGNAMDYWGQGTSVTVSS
VL: B1 VL with N24K, P49S, S59T, T83S, S99I, F100Y, A106G, R109T

- EC50: 0.0168 µg/mL
B3: 266B11F7 (antibody, V domains shown)
VH: QVQMKESGPGLVAPSQSLSITCTVSGFSLTTYGVTWVRQPPGKGLEWLGVIWGDGSTNYHSALTSRLRISKDKSKSQVFLKLSSLQTDDTATYYCAKPGRGNALDYWGQGTSVTVSS
VL: B1 VL with S22R, N24K, I54V, S59T, I81V, T83S, S99I, R109K

- EC50: 0.0252 µg/mL
B4: 254A8D5 (antibody, V domains shown)
VH: EVMLVESGGGLVKPGGSLKLSCAASGFTFSSYTVSWVRQTPEKRLEWVATSIVGSTYTYFPDSVKGRFTISRDFAKNTLFLQMSSLRSEDTAMYYCSRLGRGNAMDYWGQGTSVSVSS
VL: DIVMTQSPSSLTVTAGEKVTLNCRSSQSLLNSGNQKNYLTWYQQKPGQPPKLLIYWASTRESGVPDRFTGSGSGTDFTLTISSVQADDLAVYYCQNGYSYPFTFGSGTKLEIK

- EC50: 1.66 µg/mL
B5: 252C10F6 (antibody, V domains shown)
VH: QVHLKQSGRGLVQPSQSLSITCTVSGFSLPNYGVHWVRQPPGKGLEWLGVIWSGGNTDYNTVFKARLSITKDNSKSQVFFKMNSLQADDTAIYYCARNLYGNYDYAMDYWGQGTSVTVSS
VL: DIVMTQSPATLSVTPGDRVSLSCRASQSISDYLHWYQQKSHESPRLLIKYASQSISGIPSRFSGSGSGSEFTLSINSVEPEDVGVYYCQNGHSFPFTFGSGTKLEIK

- EC50: 0.0358 µg/mL
B6: 260G9E8 (antibody, V domains shown)
VH: QADLQQSGAELVRSGASVKMSCKASGYTFASHNMHWVKQTPGQGLEWIGYIYPGNGGTKYNQKFTGKATLTADTSSSTAYMQITSLTSEDSAVYFCARDYYGNSFAYWGQGTLVTVSA
VL: DIVMTQSPSSLTEKAGEKVSMRCKSSQSLLNSGNQKNYLTWYQQKPGQPPKLLIYWASTRESGVPDRFTGSGSGTDFTLTISSVQADDLAVYYCQNDYMFPFTFGAGTKLELK

- EC50: 0.00822 µg/mL
B7: 267H5F12 (antibody, V domains shown)
VH: B6 VH with D3Y, A30T, Y52S, G57Y, K59N, T65R, T84S, A97T, A106T
VL: B6 VL with K18R, R22S, L30F, D76E, D87E, D97N, M99W

- EC50: 0.014 µg/mL
B8: 262H9H6 (antibody, V domains shown)
VH: B6 VH with D3Y, A30T, Y52S, G57Y, K59N, T65R, T84S, A97T, A106T
VL: B6 VL with K18R, R22S, L30F, D76E, D87E, D97N, M99W

- EC50: 0.00869 µg/mL
B9: 252E7C9 (antibody, V domains shown)
VH: QTYLQQSGAELVRSGASVKMSCRTSGYSFTSHNMHWVKQTPGQGLEWIGYIYPGNGGSYYNQKFKGKAILTADTSSSTAYMQISSLTSEDSAVYFCTRDYYGNSFVYWGQGTLVTVSA
VL: DVVMTQSPSSLTEKTGEKVSMSCKSSQSLLNSGNQKNYLTWYQQKPGQPPKLLIYWASTRESGVPDRFTGSGSGTDFTLTISSLQTEDLAIYYCQNNFRYPFTFGAGTKLELK

- EC50: 0.0183 µg/mL
B10: 265E6G2 (antibody, V domains shown)
VH: B6 VH with D3Y, A30T, H32Y, K59N, T65K, T84S
VL: B1 VL with I2L, N24K, S59T, T83N, V84I, F100Y, T103P, R109K, K113R

- EC50: 0.0198 µg/mL
B11: 257G7F7 (antibody, V domains shown)
VH: B6 VH with D3Y, A30T, M34L, G57N, K59N, T65K, T84S, A97T
VL: B6 VL with K18R, R22S, L30F, D87E, D97N, M99W

- EC50: 0.00723 µg/mL
B12: 252F1B10 (antibody, V domains shown)
VH: B6 VH with D3Y, A30T, K59N, T65K, T84N, A97T
VL: B6 VL with K18R, R22S, L30F, D87E, M99R, F100Y

- EC50: 0.0133 µg/mL
B13: 256C3D3 (antibody, V domains shown)
VH: B6 VH with D3Y, T28A, A30T, Y52S, G57Y, K59N, T65R, T84G, A97T
VL: B6 VL with K18R, R22S, L30F, D87E, D97N, M99W

- EC50: 0.0151 µg/mL
B14: 260F8A6 (antibody, V domains shown)
VH: B9 VH with T2A, T24A, S28T, G57N, S58T, I69T, S77N, S84N, T97V
VL: B9 VL with T69I, I91V, F98Y, R99M

- EC50: 0.0153 µg/mL
B15: 258D11C4 (antibody, V domains shown)
VH: B6 VH with D3Y, A30S, K59N, T65K, T84S, A97T
VL: B6 VL with K18R, R22S, L30F, E61Q, D87E, M99W

- EC50: 0.0262 µg/mL
B16: 257F1E11 (antibody, V domains shown)
VH: B6 VH with D3Y, A30T, M34I, G42R, K59N, T65K, T84S, A97T
VL: B6 VL with K18R, R22S, L30F, D87E, V91I, M99W, F100Y

- EC50: 0.00978 µg/mL
B17: 257G7B9 (antibody, V domains shown)
VH: B6 VH with D3Y, A30T, M34L, G57N, K59N, T65K, T84S, A97T
VL: B6 VL with K18R, R22S, L30F, D87E, D97N, M99W

- EC50: 0.00793 µg/mL
B18: 257B1G9 (antibody, V domains shown)
VH: B6 VH with D3Y, A30T, K59N, T65K, T84S, A97T
VL: B6 VL with K14R, K18R, R22S, L30F, D87E, M99R, F100Y

- EC50: 0.0113 µg/mL
B19: 263E9F3 (antibody, V domains shown)
VH: EIQVQQSGPELMKPGASVKISCRSSGYSFTSYYIHWVKQSRGKSLEWIGYIDPFSGGTRYNQKFEGKATLTVDKSSTTAYMHLSSLTSEDSAVYYCASLRFFAYWGQGTLVTVSA
VL: DIVMTQSPSSLTVTAGEKVTMTCKSSQSLLNSGNQENYLTWYQQKPGQPPELLISRASTRQSGVPDRFTGSGSGTDFTLTISSVQTEDLAVYYCQNDYSYPLTFGAGTKLELK

- EC50: 0.0438 µg/mL
B20: 194A2F7 (antibody, V domains shown)
VH: QIQLVQSGPELKKPGETVKISCKASGYTFTDYLIHWVKQAPGKGLKWMGWINTETGEPTYADDFKGRFALSLETSASTACLQINNLKNEDTATYFCARIYYGNSFDYWGQGTTLTVSS
VL: DIVMTQSPSSLPVTAGEKVTMTCKSSQNLLNSGNQKSYLTWYQQKPGQPPKLLIYWASTRETGVPDRFTGSGSGTDFTLTISSVQAEDLAVYYCQNAYRFPFTFGAGTRLELK
